Experimental data as given in the nanobody polyreactivity screen of Harvey et al. (2022).

Assay: yeast display, Sf9 membrane polyspecificity reagent, FACS + sequencing; frameworks hold sequencing errors
Outline: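 Sorting gates, low and high (top ~1%), were placed on anti-HA fluorescence to track expression and on streptavidin fluorescence to track reagent binding. A clone's polyreactivity label is taken from the gate it came out of. The reagent was 10% biotinylated, detergent-solubilized Sf9 membrane, applied for 1 hour at 4 °C to galactose-induced yeast display cells.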

Row | Sequence | polyreactivity (PSR sort gate)
1 | QVQLVESVGGLVQAGGSLRLSCDASGSTFPKYAMGRSRQAPAKEIELVAGISWRGGSTYYADSVKGRFTISRDNAKNTVYLQMNSLKPEDTAVYYCNKYLYYSFQDDYWGQGTQVTVSS | high polyreactivity
2 | QVQLVESGGGLVQAGGSLRLSCAASGFTFYRYAMGWYRQAPGKERELVAAISWRGTSTYYADSVKGRFTISRDNAKNTVYLQMNSLKPEDTAVYYCAAPRNFGPYTSPRQPLYNYWGQGTQVTVSS | high polyreactivity
3 | QVQLVESGRGLVQAGGSLRLSCAPSGIIFTSYAMGWYRQAPGKESEFVAAITRSGSRTYYADSVKGRFTISRDNAKNTVYLQMNRLKPEDTAVYYCAARTFHDSSDSYAGGYWGQGTQVTVSS | low polyreactivity
4 | QVQLVESGGGLVQAGGSLRLSCAASGSIFIQYAMGWYRQAPGKERELVAAITGSGGSTYYADSVKGRFTISRDNAKNTVYLQMNSLKPEDTAVYYCATEFKRGYVGFDYWGQGTQVTVSS | low polyreactivity
5 | QVQLVESGGGLVQAGGSLRLSCAASGRIFKHYAMGWYRQAPGKERELVAAITNGGRTNYADSVKGRFTISRDNAKNTVYLQMNSLKPEDTAVYYCARDRKIAYLSEGFDYWGQGTQVTVSS | low polyreactivity
6 | QVQLVESGGGLVQAGGSLRLSCAASGRIFLSNAMGWYRQAPGKERELVAAISLSGGRTYYADSVKGRFTISRDNAKNTVYLQMNSLKPEDTAVYYCAAEFYPIRYYGRYDYWGQGTQVTVSS | low polyreactivity
7 | QVQLVESGGGLVQAGGSLRLSCAASGFISVRNAMGWYRQAPGKEREFVAAISGGGGSTYYADSVKGRFTISRDNAKNTVYLQMNSLKPEDTAVYYCNAPRYLYSAGRFNYWGQGTQVTVSS | high polyreactivity
8 | QVQLVESGGGLVQAGGSLRLSCSASGFTFRTYAMGWYRQAPGKETELVAAISRDGSSTYYADSVKGRFTISRDNAKNTVYLQLKSLKPEDTAVYYCAARIIRFYTSADKLVTSRYYYWGQGTQVTVSS | high polyreactivity
9 | QVQLVESGGGLVQAGGSLRLSCAASGRIFWYYSMGRYRQAPATEREVVATITTRSGSTYYADSVKGRFTISRDNAKNTVYLQMNSMKPEDTAGYYCAADWPLLYTGSHSQTKYGYWGQGTQVTVSS | high polyreactivity
10 | QVQLVETGGCLVQAGGSLRLSCAASGSTFYLYAMGWNRQAPGKETDLVASISQSGGSTIYADSVKGRFTISRDNAKNTVYLHMNSLKPEDTAVYYFAAGAGYFRYPRSGVWYVTLYDYWGEGTQVTVSS | high polyreactivity
11 | QVQLVESGGGLVQAGGSLRLSCAASGSTFPPNAMGWYRPAPGKERELVAVISNGGSNTRYADSVKGRFTISRDNAKNTVYLQMNSLKPEDTAVYYCAADYEYSGYGYWGQGTQVTVSS | high polyreactivity
12 | QFQLVESGRGLVQAGGSLRLSCAASGSTFSANAMGWYRQAPGKERELVAAISRSGTRTYYADSVKGRFTISRDNAKNTVYLQMNSLKPEDTAVYYCAAYVYQYGYDYWGQGTQVTVSS | high polyreactivity
13 | QVQLVESGGGLVQAGGSLRLSCAASGLTFSTYDMGWYRQAPGKERELVAAITSGDGSTYYADSVKGRFTISRDTAKNTVYLQMNSLKPEDTAVYYCAADYLEWYGDVLFPYDYWGQGTQVTVSS | low polyreactivity
14 | QVQLVESGGGLVQAGGSLRLSCAASGFIFGVYAMGWYRQAPGNERELVAAISGSGGTTYYADSVKGRFTISRDNAKNTVYLQMNSQKPEDTAVYYCNAAYRVRYIVNYDYWGQGTQVTVSS | low polyreactivity
15 | QVQLVESGGGLVQAGGSLRLSCAASGFIFPDYAMGWYRPAPGKERELVAAINRRGSRTYYADSVKGRFTISRDNAKNTVYLQMNSLKPEDTAVYYCNRDVGKVYAVIYDYWGQGTQVTVSS | high polyreactivity
16 | QVQLVESGGGLVQAGGSLRLSCAASGSTFSGYAMGWYRQAPGKARELVAAISWRGVRTYYADSVKGRFTISRDNAKNTVYLQMNSLKPEDTAVSYCAAVRYITKEFSWGQGTQVTVSW | high polyreactivity
17 | QVQLVESGGGLVQAGGSLRLSCAASGVIFRRYAMGWYREAPGKERELVAAMSSSGGRTTYADSVNGRFTISRDNAKNTVYIQMNSLKPEDTAVYYCNADLWPGNHDGYWGQGTQVTVSS | low polyreactivity
18 | QVQLVESGGGLVQAGGSLRLSCAASGITFYKYVMGWYRQAPGKERELVAAISSVGSTYYADSVKGRFTISRDNAKNTVYLQMNSLKPEDTAVYYCAAKYWKWYHYGFGYWGQGTQVTVSS | high polyreactivity
19 | QVQLVESGGGLVQAGGSLRLSCAASGSILTYNFMGWYRQAPGKERELVASISWSGGRTYYADSVKGRFTISRDNAKNTVYLQMNSLKPEDTAAAYCAVSQSWYWYYASDYWGQGTQVTVSS | low polyreactivity
20 | QVQLVESGGGLVQAGGSLRLSCAASGRIFDYNAMGWYRQAPGKERELVAAITKDDGSTYYADSVKGRFTISRDNAKNTVYLQMNSLKPEDTAVYYCAAEFYWTYVDIWYDYWGQGTQVTVSS | low polyreactivity
21 | QVQLVESGGGLVQAGGSLRLSCAASGSILGTYAMGWYRQAPGKERELVARISRGGSTNYADSVKGRFTISRDNAKNTVYLQMNILKPEDTAVYYCAKRLYLPESWRYYYWGQGTQVTVSS | high polyreactivity
22 | QVQLVESGGGLVQAGGSLRLSGAASGRIFYSNAMGWYRQAHGKERELVAAITRAGSTNYADSVKGSFTISRDIAKNTVYLQMNSLKPDDTAVYDCAATYGCSVFEYDYWGQGTQVTVSS | low polyreactivity

Row | Sequence | polyreactivity (PSR sort gate)
23 | QVQLVESGGGLVQAGGSLRLSCAASGFIFRWYAMGGYRPAPGKERELVASITRCGSTYYADSVKGRFTISRDNAKNTVYLQMNSLKPEDTAVYYCAVDYLSPKYDYWGHGTQVTVSS | high polyreactivity
24 | QVQLVESGGGLVQAGGSLRLSCAASGRTFYLYAMGWYRPAPGKERELVAAITSGGSTNYADSVKGRFTISRDNAKNTVYLQMNSLKPEDTAVYYCNAYKRGYLYRYNYWGQGTQVTVSS | high polyreactivity
25 | QVQLVESGGGLVQAGGSLRLSCAASGFTFRGYAMGWYRQAPGKERELVAAITAGGGSTSYADSVKGRFTISRDNAKNTVYLQMNSLKPEDTGVYYCARRPGTRTYLSKWGSKYDYWGQGTQVTVSS | high polyreactivity
26 | QVQLVESGGGLVQAGGSLRLSCAASGSIFRSYAMGWYRQAPGNERELVAALSGRGSNTYYADSVKGRFTISRDNAKNTVYLQMNSLKPEDTAVYYGATRRHYGSTRSYDYWGQGTQVTVSS | high polyreactivity
27 | QVQLVESWGGLVQAGGSLRLSCAASGITFFFYAMGLYRLAPGKERELVASITWEDGSTYYADSVKGRFTISRDNANNTVYLQKNSLKPEDTAVYYCAADFEAGGYSLDYWGQGTQVTVSS | low polyreactivity
28 | QVQLVESGGGIVQAGGSLRLSCAASGIIIDGNAMGWYRQAPGKERELVAAISSRGGSTYYADSVKGRFTISRDYAKNTVYLQMNSLKPEDTAVYYCAAKVRHYYSASNYYYWGQGTQVTVSS | high polyreactivity
29 | QVQLVESGGGLVQAGGSLRLSCAASGSILAAYAKGWYRQAPGKERELVAAISLDDGSTYYADSVKGRFTISRDNAKNTVYFQMNSLKPVDTAVYYCAADYYVRSQLLYATSGNYWGQGTQVTVTS | high polyreactivity
30 | QVQLVESGGGLVQAGGSLRLSCAASGRIFVPYVMGWYRQAPGKDRELVASISDSDTSTYYADSVKGRFTISRDNAKNNVYLQMNSMKPEDTAVYYCNVDYWGQGTQVTVSS | low polyreactivity
31 | QVQLVESGGGLVQAGGSLRLSCAASGSTIPLYAMGWYRQAPGKERELVAAISRRGGRTYYADSVKGRFTISRDNAKNTVYLQMNSLKPEDTAVYYCATAVGSRVDYWGQGTQVTVSS | high polyreactivity
32 | QVQLVDSGGGLVQAGGSLRLSCAASGFIFPSYVMGWYRQAPGKERELVATISRTGGSTYYADSVKGRYTISRDNAKNTVYLQMNSLKPEYTAVYFCAAYRYSYLQLMDYWGQGTQVTVSS | high polyreactivity
33 | QVQLVESGGGLVQAGGSLRLSCAASGRIFTRYVMGWYRPAPGKERELVAGINSGGRTNYADSVKGRFTISRDNAKNTVYLQMNSLKQVDTAVYYCAAGKGRPVGGRAYYYWGHGTQVTVSS | high polyreactivity
34 | QVQLVQSGGCLVQAGGSLRLSCSASGSIFVHHDMGWYRQAPGKERELVAAISWGGGRTYYADSVKGRFTISRDNAKNTVYLQMNSLKPEDTAVYYCAVDGGEFSSYGYWGQGTQVTVSS | low polyreactivity
35 | QVQLVESGGGLVQAGGSLRLSCAASGFTFGSYAMGWYRQAPGKERELVAASTRRGDNTYYADSVKGRFTISRDNAKNTVYLQMNSLKPEDTAVYYCNVGLRSVVSGEYWGHGTQVTVSS | high polyreactivity
36 | QVQLVESGGGLVQAGGSLRLSCAASGSTFYIYAMGWYRQAPGKERELVAAISSVGRTSYADSVKGRFTISRDNAKNTVYLQMNSLKPEDTAVYYCAADKVDDSSYVPRTVFRYESDYWGQGTQVTVSS | low polyreactivity
37 | QVQLVESGGGLVQAGGSLRLSCAASGLTFTRYTMGWYRQAPGKERELVAAITSSGGSTYYADSVKGRFTISRDNAKNTVYLQMNSLKPEDTAVYYCAARYPGTRGDGYWGQGTQVTVSS | high polyreactivity
38 | QVQLVESGGGLVQAGGSLRLSCAASGSTFNDYVMGWYRQAPGKERELVAAISRSGGSTYYADSVKGRFTISRDNAKNTVYLQMNSLNPEDTAVYYCAAASPGPWRYDYWGQGTQVTVSS | high polyreactivity
39 | QVQLVESGGGLVQAGGSLRLSCAASGSTSGKYGMGWYRQAPGKVRELVAGITKGGGGTYYADSVKGRFTISRDNAKNTVYLQMHSLKPEDTAVYYCAKYYGSGYYIYDYWGQGTQVTVSS | low polyreactivity
40 | QVQLVESGGGLVQAGGSLRLSSAASGFTLGYYAMGWYRQAPGKEREMVAAIRSSGTRTYYADSVKGRFTISRDNAKYTVYLLMNSLKPEDTAVYYCAARTPSYEMDYWGQGTQVTVSS | high polyreactivity
41 | QVQLVESGGGLVQAGGSLRLSCAPSGSTYLSYAMGWYRQAPGKERELVAAITYSGGRTYYAESVKGRFTISRDNAKITVYLQMNSLKQEDTAVYYCAATGVFRDEYWGQGTQVTVSS | low polyreactivity
42 | QVHLVESGGGLVQAGGSLRLSCAASGIIFRHKAMLWYRQAPGKERELVAAISSGGNTYYADSVKGRFTISRDNAKNTVYLLMNSLKPEDTAVYYFADDVQDRYHRAWYDSWGQGRQVTVSS | low polyreactivity
43 | QVQLVESGGGLVQAGGSLRLSCAASGRTFPRYVMGWNRQAPGKERELVAAISSSGGSTYYADSVKGRFTISRDNAKNTVYLQMNSLKPEDTAVYYCAAPSGGSKRYYYWGQGTKVTVSS | high polyreactivity
